Results as given in US20250313627A1 (FUSE BIOTHERAPEUTICS, published 2025).

Columns and labels:
[1] = biological target: T1, human ROR1 (Receptor Tyrosine Kinase-Like Orphan Receptor 1) on the cell surface (human, UniProt Q01973 30-937); test: flow cytometry, B16-F10 cells expressing human ROR1 (high density)
T1 construct: whole, on cells; engineered into B16-F10 (high density) and LS174T (low density) cells; also called B16-F10-ROR1-H; LS174T-ROR1-L
Experimental: (§1) As shown in the tables below, mouse B16-F10 melanoma (Tables 9A-9F) or LS174T human colorectal adenocarcinoma (Tables 9G-9H) cells genetically engineered to express human ROR1 at high and low densities, respectively, were stained for flow cytometric analysis with 100 nM of humanized variants of the ROR1 specific VHHs, 5A1 or 2A11 in either a VHH-Fc format or the Ac13 format shown in FIG. 1. Cells were analyzed on a flow cytometer after the primary test article was fluorescently tagged with a goat anti human IgG-Fc specific PE secondary antibody. The positive control used was PE conjugated anti-human ROR1 clone 2A2. Negative controls included a PE labeled mouse IgG Ab, the secondary antibody only, the combination of a Hen Egg Lysozyme (HEL) specific antibody plus goat anti human IgG-Fc specific PE and Fluorescence Minus One (FMO). Other controls included the non-humanized version of 5A1-Fc (FUSE179), 2A11-Fc (FUSE112) and 5A1-Ac13 (FUSE488). Humanized variants were generated using computational design (FUSE489, FUSE497-498, FUSE563, FUSE569-570, and BI-HU9-VHH11-33), a yeast display library in which mutations were inserted into the Vernier zone residues of human framework indicated in GenBank accession number M99660 (FUSE524-525, FUSE589, FUSE597-598, FUSE537, FUSE661-662, BI-HU9-HK and BI-HU9-HK-1), and a second yeast display library in which mutations were inserted into the Vernier zone residues of human framework indicated in GenBank accession number AWH66715 and amino acid position 103 within CDR3 (FUSE559, FUSE590-596, BI-HU9-VH9-1, FUSE654-655 and FUSE661-662. Affinity matured variants of FUSE559 were also generated using computational design (F22158101-21; Table 9H).

[2] = biological target: T1, human ROR1 (Receptor Tyrosine …); test: flow cytometry, LS174T cells expressing human ROR1 (low density)
Experimental: as §1

T1 sequence (Q01973 30-937): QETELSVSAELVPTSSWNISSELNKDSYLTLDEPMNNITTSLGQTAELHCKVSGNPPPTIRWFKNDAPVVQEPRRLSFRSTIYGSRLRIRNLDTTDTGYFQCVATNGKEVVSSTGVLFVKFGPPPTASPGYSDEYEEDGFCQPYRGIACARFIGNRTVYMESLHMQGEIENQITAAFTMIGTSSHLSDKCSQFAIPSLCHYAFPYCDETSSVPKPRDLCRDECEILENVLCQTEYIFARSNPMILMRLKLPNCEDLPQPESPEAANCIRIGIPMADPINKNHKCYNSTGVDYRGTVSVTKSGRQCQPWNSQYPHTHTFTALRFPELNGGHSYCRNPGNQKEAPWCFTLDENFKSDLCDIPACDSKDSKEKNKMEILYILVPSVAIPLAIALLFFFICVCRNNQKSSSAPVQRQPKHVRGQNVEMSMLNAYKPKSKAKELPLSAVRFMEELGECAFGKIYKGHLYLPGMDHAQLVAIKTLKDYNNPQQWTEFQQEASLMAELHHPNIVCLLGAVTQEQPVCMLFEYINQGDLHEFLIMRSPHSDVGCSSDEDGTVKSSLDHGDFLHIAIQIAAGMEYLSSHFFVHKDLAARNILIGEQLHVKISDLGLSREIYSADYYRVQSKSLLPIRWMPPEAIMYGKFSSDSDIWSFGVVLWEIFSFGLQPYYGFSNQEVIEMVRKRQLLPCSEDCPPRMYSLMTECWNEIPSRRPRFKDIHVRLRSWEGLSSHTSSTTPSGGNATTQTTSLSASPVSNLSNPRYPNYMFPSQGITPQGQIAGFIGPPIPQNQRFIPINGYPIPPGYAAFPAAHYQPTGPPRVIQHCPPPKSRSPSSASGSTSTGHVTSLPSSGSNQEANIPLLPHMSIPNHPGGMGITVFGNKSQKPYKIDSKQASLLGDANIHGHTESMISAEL

Row | Binder | MFI [1] | MFI [2]
1 | F221581018 (h5A1-BI-018 Fc) (Fc fusion, VHH-Fc format; also called F22158118; not shown: Fc of the VHH-Fc format) EVQLLESGGGLVQPGGSLRLSCAASGYTNRLKCMGWFRQAPGKEREEVASISTGTGNAYYADSVKGRFTISQDKSKNTLYLQMNSLKAEDTAVYYCAADVRPHGRTCHYNSRGQGTLVTVSS | – | 17500
2 | F221581017 (h5A1-BI-017 Fc) (Fc fusion, VHH-Fc format; also called F22158117; not shown: Fc of the VHH-Fc format) EVQLLESGGGLVQPGGSLRLSCAASGYTNRIKCMGWFRQAPGKEREEVASISTGTGNAYYADSVKGRFTISQDKSKNTLYLQMNSLKAEDTAVYYCAADVRPHGTTCHYNSRGQGTLVTVSS | – | 28600
3 | F22158104 (h5A1-BI-004 Fc) (Fc fusion, VHH-Fc format; not shown: Fc of the VHH-Fc format) EVQLLESGGGLVQPGGSLRLSCAASGYTNRIKCMGWFRQAPGKEREEVASISTGTGNAYYADSVKGRFTISQDKSKNTLYLQMNSLKAEDTAVYYCAADVRPDGTTCHYNKRGQGTLVTVSS | – | 28900
4 | FUSE-591 (h5A1-FA9-HK3_Fc) (Fc fusion, VHH-Fc format; not shown: Fc of the VHH-Fc format) EVQLLESGGGLVPRGGSLRLSCAASGYTNRLKCMGWFRQAPGKEREEIATISTGTGNTYYADSVKGRFTISQDKSRNTLYLQMNSLKAEDTAVYYCAADVRPKGTTCHYNKRGQGTQVTVSS | 7770 | –
5 | FUSE-592 (h5A1-FA9-HK4_Fc) (Fc fusion, VHH-Fc format; not shown: Fc of the VHH-Fc format) EVQLLESGGGLVPRGGSLRLSCAASGYTNRLKCMGWFRQAPGKEREEVASISTGTGNTYYADSVKGRFTISQDKSRNTLYLQLNSLRAEDTAVYYCAADVRPRGTTCHYNSRGQGTQVTVSS | 7540 | –
6 | FUSE-595 (h5A1-FA9-HK7_Fc) (Fc fusion, VHH-Fc format; not shown: Fc of the VHH-Fc format) EVQLLESGGGLVQRGGSLRLSCTASGYTNRLKCMGWFRQAPGKEREEIATISTGTGNTYYADSVKGRFTISRDKSRNTLYLQMKSLKAEDTAVYYCAADVRPKGTTCHYNSRGQGTQVTVSS | 7180 | –
7 | F221581015 (h5A1-BI-015 Fc) (Fc fusion, VHH-Fc format; also called F22158115; not shown: Fc of the VHH-Fc format) EVQLLESGGGLVQPGGSLRLSCAASGYTNRIKCMGWFRQAPGKEREEVASISTGTGNTYYADSVKGRFTISQDKSKNTLYLQMNSLKAEDTAVYYCAADVRPFGTTCHYNKRGQGTLVTVSS | – | 29300
8 | F221581014 (h5A1-BI-014 Fc) (Fc fusion, VHH-Fc format; also called F22158114; not shown: Fc of the VHH-Fc format) EVQLLESGGGLVQPGGSLRLSCAASGYTNRIKCMGWFRQAPGKEREEVASISTGTGNTYYADSVKGRFTISQDKSKNTLYLQMNSLKAEDTAVYYCAADVRPFGRTCHYNSRGQGTLVTVSS | – | 28700
9 | FUSE-594 (h5A1-FA9-HK6_Fc) (Fc fusion, VHH-Fc format; not shown: Fc of the VHH-Fc format) EVQLLESGGGLVPRGGSLRLSCTASGYTNRLKCMGWFRQAPGKEREEIASISTGTGNTYYADSVKGRFTISQDKSRNTLYLQMNSLKAEDTAVYYCAADVRPRGTTCHYNSRGQGTQVTVSS | 7910 | –
10 | F22158109 (h5A1-BI-009 Fc) (Fc fusion, VHH-Fc format; not shown: Fc of the VHH-Fc format) EVQLLESGGGLVQPGGSLRLSCAASGYTNRIKCMGWFRQAPGKEREEVASISTGTGNSYYADSVKGRFTISQDKSKNTLYLQMNSLKAEDTAVYYCAADVRPDGRTCHYNKRGQGTLVTVSS | – | 35000
11 | F221581010 (h5A1-BI-010 Fc) (Fc fusion, VHH-Fc format; also called F22158110; not shown: Fc of the VHH-Fc format) EVQLLESGGGLVQPGGSLRLSCAASGYTNRLKCMGWFRQAPGKEREEVASISTGTGNTYYADSVKGRFTISQDKSKNTLYLQMNSLKAEDTAVYYCAADVRPDGRTCHYNKRGQGTLVTVSS | – | 18700
12 | F22158107 (h5A1-BI-007 Fc) (Fc fusion, VHH-Fc format; not shown: Fc of the VHH-Fc format) EVQLLESGGGLVQPGGSLRLSCAASGYTNRLKCMGWFRQAPGKEREEVASISTGTGNAYYADSVKGRFTISQDKSKNTLYLQMNSLKAEDTAVYYCAADVRPDGRTCHYNSRGQGTLVTVSS | – | 11500

Results, then the binder that gave them:

Row | MFI [1] | MFI [2] | Binder
13 | 6950 | – | FUSE-589 (h2A11-HK5 Fc) (Fc fusion, VHH-Fc format; not shown: Fc of the VHH-Fc format) EVQLLESGGGLVQPGGSLRLSCAASGSTYSANCMGWFRQAPGKERELASMSIRSGRTYYADSVKGRFTISQDGSKNTLYLQMNSLKAEDTAVYYCAAAYGGSRCVYNYRGQGTLVTVSS
14 | – | 19700 | F22158101 (h5A1-BI-001 Fc) (Fc fusion, VHH-Fc format; not shown: Fc of the VHH-Fc format) EVQLLESGGGLVQPGGSLRLSCAASGYTNRIKCMGWFRQAPGKEREEVASISTGTGNTYYADSVKGRFTISQDKSKNTLYLQMNSLKAEDTAVYYCAADVRPDGFTCHYNSRGQGTLVTVSS
15 | – | 20500 | F22158102 (h5A1-BI-002 Fc) (Fc fusion, VHH-Fc format; not shown: Fc of the VHH-Fc format) EVQLLESGGGLVQPGGSLRLSCAASGYTNRIKCMGWFRQAPGKEREEVASISTGTGNTYYADSVKGRFTISQDKSKNTLYLQMNSLKAEDTAVYYCAADVRPDGTTCHYNKRGQGTLVTVSS
16 | – | 15800 | F22158103 (h5A1-BI-003 Fc) (Fc fusion, VHH-Fc format; not shown: Fc of the VHH-Fc format) EVQLLESGGGLVQPGGSLRLSCAASGYTNRLKCMGWFRQAPGKEREEVASISTGTGNAYYADSVKGRFTISQDKSKNTLYLQMNSLKAEDTAVYYCAADVRPDGTTCHYNKRGQGTLVTVSS
17 | – | 19400 | F221581011 (h5A1-BI-011 Fc) (Fc fusion, VHH-Fc format; also called F22158111; not shown: Fc of the VHH-Fc format) EVQLLESGGGLVQPGGSLRLSCAASGYTNRIKCMGWFRQAPGKEREEVASISTGTGNTYYADSVKGRFTISQDKSKNTLYLQMNSLKAEDTAVYYCAADVRPFGTTCHYNSRGQGTLVTVSS
18 | – | 26500 | F221581020 (h5A1-BI-020 Fc) (Fc fusion, VHH-Fc format; also called F22158120; not shown: Fc of the VHH-Fc format) EVQLLESGGGLVQPGGSLRLSCAASGYTNRLKCMGWFRQAPGKEREEVASISTGTGNAYYADSVKGRFTISQDKSKNTLYLQMNSLKAEDTAVYYCAADVRPHGTTCHYNKRGQGTLVTVSS
19 | – | 23800 | F221581013 (h5A1-BI-013 Fc) (Fc fusion, VHH-Fc format; also called F22158113; not shown: Fc of the VHH-Fc format) EVQLLESGGGLVQPGGSLRLSCAASGYTNRLKCMGWFRQAPGKEREEVASISTGTGNTYYADSVKGRFTISQDKSKNTLYLQMNSLKAEDTAVYYCAADVRPFGTTCHYNKRGQGTLVTVSS
20 | – | 33800 | F221581019 (h5A1-BI-019 Fc) (Fc fusion, VHH-Fc format; also called F22158119; not shown: Fc of the VHH-Fc format) EVQLLESGGGLVQPGGSLRLSCAASGYTNRIKCMGWFRQAPGKEREEVASISTGTGNAYYADSVKGRFTISQDKSKNTLYLQMNSLKAEDTAVYYCAADVRPHGRTCHYNSRGQGTLVTVSS
21 | – | 35800 | F221581021 (h5A1-BI-021 Fc) (Fc fusion, VHH-Fc format; also called F22158121; not shown: Fc of the VHH-Fc format) EVQLLESGGGLVQPGGSLRLSCAASGYTNRIKCMGWFRQAPGKEREEVASISTGTGNAYYADSVKGRFTISQDKSKNTLYLQMNSLKAEDTAVYYCAADVRPHGTTCHYNKRGQGTLVTVSS
22 | 7330 | – | FUSE-590 (h5A1-FA9-HK2_Fc) (Fc fusion, VHH-Fc format; not shown: Fc of the VHH-Fc format) EVQLLESGGGLVQRGGSLRLSCTASGYTNRLKCMGWFRQAPGKEREEIASISTGTGNTYYSDSVKGRFTISRDKSRNTLYLQMKSLRAEDTAVYYCAADVRPRGTTCHYNSRGQGTQVTVSS
23 | – | 25100 | F22158108 (h5A1-BI-008 Fc) (Fc fusion, VHH-Fc format; not shown: Fc of the VHH-Fc format) EVQLLESGGGLVQPGGSLRLSCAASGYTNRIKCMGWFRQAPGKEREEVASISTGTGNAYYADSVKGRFTISQDKSKNTLYLQMNSLKAEDTAVYYCAADVRPDGRTCHYNSRGQGTLVTVSS
24 | – | 14200 | F221581012 (h5A1-BI-012 Fc) (Fc fusion, VHH-Fc format; also called F22158112; not shown: Fc of the VHH-Fc format) EVQLLESGGGLVQPGGSLRLSCAASGYTNRLKCMGWFRQAPGKEREEVASISTGTGNTYYADSVKGRFTISQDKSKNTLYLQMNSLKAEDTAVYYCAADVRPFGRTCHYNSRGQGTLVTVSS
25 | – | 15000 | F221581016 (h5A1-BI-016 Fc) (Fc fusion, VHH-Fc format; also called F22158116; not shown: Fc of the VHH-Fc format) EVQLLESGGGLVQPGGSLRLSCAASGYTNRLKCMGWFRQAPGKEREEVASISTGTGNAYYADSVKGRFTISQDKSKNTLYLQMNSLKAEDTAVYYCAADVRPHGTTCHYNSRGQGTLVTVSS
26 | – | 17400 | F22158106 (h5A1-BI-006 Fc) (Fc fusion, VHH-Fc format; not shown: Fc of the VHH-Fc format) EVQLLESGGGLVQPGGSLRLSCAASGYTNRIKCMGWFRQAPGKEREEVASISTGTGNTYYADSVKGRFTISQDKSKNTLYLQMNSLKAEDTAVYYCAADVRPDGRTCHYNSRGQGTLVTVSS
27 | – | 22300 | F22158105 (h5A1-BI-005 Fc) (Fc fusion, VHH-Fc format; not shown: Fc of the VHH-Fc format) EVQLLESGGGLVQPGGSLRLSCAASGYTNRLKCMGWFRQAPGKEREEVASISTGTGNTYYADSVKGRFTISQDKSKNTLYLQMNSLKAEDTAVYYCAADVRPDGFTCHYNKRGQGTLVTVSS
28 | 7520 | – | FUSE-593 (h5A1-FA9-HK5_Fc) (Fc fusion, VHH-Fc format; not shown: Fc of the VHH-Fc format) EVQLLESGGGLVQRGGSLRLSCAASGYTNRLKCMGWFRQAPGKEREEIASISTGTGNTYYSDSVKGRFTISRDKSRNTLYLQLNSLKAEDTAVYYCAADVRPKGTTCHYNSRGQGTQVTVSS
29 | 6260 | – | FUSE-596 (h5A1-FA9-HK8 Fc) (Fc fusion, VHH-Fc format; not shown: Fc of the VHH-Fc format) EVQLLESGGGLVPRGGSLRLSCTASGYTNRLKCMGWFRQAPGKEREEIASISTGTGNTYYSDSVKGRFTISRDKSRNTLYLKLKSLRAEDTAVYYCAADVRPDGTTCHYNSRGQGTQVTVSS
